Laboratory results taken from publication PMC10348767 (2023).

B1: FLAG-hnRNPH2 WT, full length [human] / Kapβ2 in HEK293T cells [human (endogenous in HEK293T)] (parent complex)
chain 1: MMLSTEGREGFVVKVRGLPWSCSADEVMRFFSDCKIQNGTSGIRFIYTREGRPSGEAFVELESEEEVKLALKKDRETMGHRYVEVFKSNSVEMDWVLKHTGPNSPDTANDGFVRLRGLPFGCSKEEIVQFFSGLEIVPNGMTLPVDFQGRSTGEAFVQFASQEIAEKALKKHKERIGHRYIEIFKSSRAEVRTHYDPPRKLMAMQRPGPYDRPGAGRGYNSIGRGAGFERMRRGAYGGGYGGYDDYGGYNDGYGFGSDRFGRDLNYCFSGMSDHRYGDGGSSFQSTTGHCVHMRGLPYRATENDIYNFFSPLNPMRVHIEIGPDGRVTGEADVEFATHEDAVAAMAKDKANMQHRYVELFLNSTAGTSGGAYDHSYVELFLNSTAGASGGAYGSQMMGGMGLSNQSSYGGPASQQLSGGYGGGYGGQSSMSGYDQVLQENSSDYQSNLA
chain 2: MVWDRQTKMEYEWKPDEQGLQQILQLLKESQSPDTTIQRTVQQKLEQLNQYPDFNNYLIFVLTKLKSEDEPTRSLSGLILKNNVKAHFQNFPNGVTDFIKSECLNNIGDSSPLIRATVGILITTIASKGELQNWPDLLPKLCSLLDSEDYNTCEGAFGALQKICEDSAEILDSDVLDRPLNIMIPKFLQFFKHSSPKIRSHAVACVNQFIISRTQALMLHIDSFIENLFALAGDEEPEVRKNVCRALVMLLEVRMDRLLPHMHNIVEYMLQRTQDQDENVALEACEFWLTLAEQPICKDVLVRHLPKLIPVLVNGMKYSDIDIILLKGDVEEDETIPDSEQDIRPRFHRSRTVAQQHDEDGIEEEDDDDDEIDDDDTISDWNLRKCSAAALDVLANVYRDELLPHILPLLKELLFHHEWVVKESGILVLGAIAEGCMQGMIPYLPELIPHLIQCLSDKKALVRSITCWTLSRYAHWVVSQPPDTYLKPLMTELLKRILDSNKRVQEAACSAFATLEEEACTELVPYLAYILDTLVFAFSKYQHKNLLILYDAIGTLADSVGHHLNKPEYIQMLMPPLIQKWNMLKDEDKDLFPLLECLSSVATALQSGFLPYCEPVYQRCVNLVQKTLAQAMLNNAQPDQYEAPDKDFMIVALDLLSGLAEGLGGNIEQLVARSNILTLMYQCMQDKMPEVRQSSFALLGDLTKACFQHVKPCIADFMPILGTNLNPEFISVCNNATWAIGEISIQMGIEMQPYIPMVLHQLVEIINRPNTPKTLLENTAITIGRLGYVCPQEVAPMLQQFIRPWCTSLRNIRDNEEKDSAFRGICTMISVNPSGVIQDFIFFCDAVASWINPKDDLRDMFCKILHGFKNQVGDENWRRFSDQFPLPLKERLAAFYGV
B2: GST-hnRNPH2 PY-NLS WT (aa 169–225) [human] / karyopherin β2 (Kapβ2) [not stated] (parent complex)
chain 1: LKKHKERIGHRYIEIFKSSRAEVRTHYDPPRKLMAMQRPGPYDRPGAGRGYNSIGRG
chain 2: B1 chain 2

Variants of: B1
Experiment: co-immunoprecipitation (anti-FLAG IP, immunoblot densitometry); HEK293T cells transfected with FLAG-hnRNPH2 constructs; parent: 100; read off a plot

| percent of parent [%] | Variant |
| --- | --- |
| ~20 | chain 1 MMLSTEGREGFVVKVRGLPWSCSADEVMRFFSDCKIQNGTSGIRFIYTREGRPSGEAFVELESEEEVKLALKKDRETMGHRYVEVFKSNSVEMDWVLKHTGPNSPDTANDGFVRLRGLPFGCSKEEIVQFFSGLEIVPNGMTLPVDFQGRSTGEAFVQFASQEIAEKALKKHKERIGHRYIEIFKSSRAEVRTHYDPPRKLMAMQRPGLYDRPGAGRGYNSIGRGAGFERMRRGAYGGGYGGYDDYGGYNDGYGFGSDRFGRDLNYCFSGMSDHRYGDGGSSFQSTTGHCVHMRGLPYRATENDIYNFFSPLNPMRVHIEIGPDGRVTGEADVEFATHEDAVAAMAKDKANMQHRYVELFLNSTAGTSGGAYDHSYVELFLNSTAGASGGAYGSQMMGGMGLSNQSSYGGPASQQLSGGYGGGYGGQSSMSGYDQVLQENSSDYQSNLA [chain 1 P209L] |
| ~26 | chain 1 MMLSTEGREGFVVKVRGLPWSCSADEVMRFFSDCKIQNGTSGIRFIYTREGRPSGEAFVELESEEEVKLALKKDRETMGHRYVEVFKSNSVEMDWVLKHTGPNSPDTANDGFVRLRGLPFGCSKEEIVQFFSGLEIVPNGMTLPVDFQGRSTGEAFVQFASQEIAEKALKKHKERIGHRYIEIFKSSRAEVRTHYDPPRKLMAMQGPGPYDRPGAGRGYNSIGRGAGFERMRRGAYGGGYGGYDDYGGYNDGYGFGSDRFGRDLNYCFSGMSDHRYGDGGSSFQSTTGHCVHMRGLPYRATENDIYNFFSPLNPMRVHIEIGPDGRVTGEADVEFATHEDAVAAMAKDKANMQHRYVELFLNSTAGTSGGAYDHSYVELFLNSTAGASGGAYGSQMMGGMGLSNQSSYGGPASQQLSGGYGGGYGGQSSMSGYDQVLQENSSDYQSNLA [chain 1 R206G] |

Second part, the variant before the results:

| Variant | percent of parent [%] |
| --- | --- |
| chain 1 MMLSTEGREGFVVKVRGLPWSCSADEVMRFFSDCKIQNGTSGIRFIYTREGRPSGEAFVELESEEEVKLALKKDRETMGHRYVEVFKSNSVEMDWVLKHTGPNSPDTANDGFVRLRGLPFGCSKEEIVQFFSGLEIVPNGMTLPVDFQGRSTGEAFVQFASQEIAEKALKKHKERIGHRYIEIFKSSRAEVRTHYDPPRKLMAMQRPGPCDRPGAGRGYNSIGRGAGFERMRRGAYGGGYGGYDDYGGYNDGYGFGSDRFGRDLNYCFSGMSDHRYGDGGSSFQSTTGHCVHMRGLPYRATENDIYNFFSPLNPMRVHIEIGPDGRVTGEADVEFATHEDAVAAMAKDKANMQHRYVELFLNSTAGTSGGAYDHSYVELFLNSTAGASGGAYGSQMMGGMGLSNQSSYGGPASQQLSGGYGGGYGGQSSMSGYDQVLQENSSDYQSNLA [chain 1 Y210C] | ~25 |
| chain 1 MMLSTEGREGFVVKVRGLPWSCSADEVMRFFSDCKIQNGTSGIRFIYTREGRPSGEAFVELESEEEVKLALKKDRETMGHRYVEVFKSNSVEMDWVLKHTGPNSPDTANDGFVRLRGLPFGCSKEEIVQFFSGLEIVPNGMTLPVDFQGRSTGEAFVQFASQEIAEKALKKHKERIGHRYIEIFKSSRAEVRTHYDPPRKLMAMQWPGPYDRPGAGRGYNSIGRGAGFERMRRGAYGGGYGGYDDYGGYNDGYGFGSDRFGRDLNYCFSGMSDHRYGDGGSSFQSTTGHCVHMRGLPYRATENDIYNFFSPLNPMRVHIEIGPDGRVTGEADVEFATHEDAVAAMAKDKANMQHRYVELFLNSTAGTSGGAYDHSYVELFLNSTAGASGGAYGSQMMGGMGLSNQSSYGGPASQQLSGGYGGGYGGQSSMSGYDQVLQENSSDYQSNLA [chain 1 R206W] | ~48 |
| chain 1 MMLSTEGREGFVVKVRGLPWSCSADEVMRFFSDCKIQNGTSGIRFIYTREGRPSGEAFVELESEEEVKLALKKDRETMGHRYVEVFKSNSVEMDWVLKHTGPNSPDTANDGFVRLRGLPFGCSKEEIVQFFSGLEIVPNGMTLPVDFQGRSTGEAFVQFASQEIAEKALKKHKERIGHRYIEIFKSSRAEVRTHYDPPRKLMAMQQPGPYDRPGAGRGYNSIGRGAGFERMRRGAYGGGYGGYDDYGGYNDGYGFGSDRFGRDLNYCFSGMSDHRYGDGGSSFQSTTGHCVHMRGLPYRATENDIYNFFSPLNPMRVHIEIGPDGRVTGEADVEFATHEDAVAAMAKDKANMQHRYVELFLNSTAGTSGGAYDHSYVELFLNSTAGASGGAYGSQMMGGMGLSNQSSYGGPASQQLSGGYGGGYGGQSSMSGYDQVLQENSSDYQSNLA [chain 1 R206Q] | ~25 |

Variants of: B2
Experiment: GST pulldown, Coomassie Blue band intensity; parent: 86; read off a plot

| response [%] | Variant |
| --- | --- |
| ~42 | chain 1 LKKHKERIGHRYIEIFKSSRAEVRTHYDPPRKLMAMQWPGPYDRPGAGRGYNSIGRG |
| ~28 | chain 1 LKKHKERIGHRYIEIFKSSRAEVRTHYDPPRKLMAMQRPGLYDRPGAGRGYNSIGRG |
